From paper PMC8204981, “Helicobacter pylori GmhB enzyme involved in ADP-heptose biosynthesis pathway is essential for lipopolysaccharide biosynthesis and bacterial virulence” (Virulence, 2021)

Columns and labels:
[1] = system: O=P(O)(O)OC[C@@H](O)[C@H]1O[C@@H](OP(=O)(O)O)[C@@H](O)[C@@H](O)[C@@H]1O; experiment: purified protein; conditions: 20 mM HEPES pH 8.0, 10 mM MgCl2, 10 mM KCl, 25 °C, 30 min
Excerpt: (§1) malachite green phosphate release assay, Michaelis-Menten fit on HP0860 protein (H. pylori GmhB)

[2] = system: O=P(O)(O)OC[C@@H](O)[C@H]1O[C@H](OP(=O)(O)O)[C@@H](O)[C@@H](O)[C@@H]1O; experiment: purified protein; conditions: 20 mM HEPES pH 8.0, 10 mM MgCl2, 10 mM KCl, 25 °C, 30 min
Excerpt: as §1

## HP0860 protein (H. pylori GmhB) (Helicobacter pylori 26695)
[1]
  Km: 0.21 ± 0.05 mM
  kcat: 2.18 ± 0.17 s⁻¹
  kcat/Km: 10400 M⁻¹ s⁻¹
[2]
  Km: 0.30 ± 0.08 mM
  kcat: 1.07 ± 0.1 s⁻¹
  kcat/Km: 3570 M⁻¹ s⁻¹
